Consider one protein from publication PMC6297349, “The ASCIZ-DYNLL1 axis promotes 53BP1-dependent non-homologous end joining and PARP inhibitor sensitivity” (Nature Communications, 2018).

The series concerns the molecule itself. The series is described as follows: SEC; equal concentrations of TALON IMAC eluate fractionated over a Superdex S200 column (Supplementary Fig. 2a).

B1: Smt3-His6-tagged wild type 53BP1 fragment (amino acids 1131–1292) (domain or fragment, UniProt Q12888 1131-1292, looked up)
chain: GRSTNKENPSKALIERPSQNNIGIQTMECSLRVPETVSAATQTIKNVCEQGTSTVDQNFGKQDATVQTERGSGEKPVSAPGDDTESLHSQGEEEFDMPQPPHGHVLHRHMRTIREVRTLVTRVITDVYYVDGTEVERKVTEETEEPIVECQECETEVSPSQT
notes: No cleavage of the tags is described; the IMAC eluate went onto the Superdex S200 column; also called LC8-OD; source: E. coli BL21(DE3), pET-17b, purified (TALON IMAC column)
In the case of B1, the binding result is recorded as “binds”.
